Source: the DeepSol protein solubility set

assay: soluble on expression in E. coli; label from the status in PepcDB or PDB records

Sequence | soluble on expression in E. coli
MADRNLRDLLAPWVAGLPARELREMTLDSRVAAAGDLFVAVVGHQADGRRYIPQAIAQGVAAIIAEAKDEASDGEIREMHGVPVVYLSQLNERLSALAGRFYHEPSENMRLVAVTGTNGKTTTTQLLAQWSQLLGETSAVMGTVGNGLLGKVIPTENTTGSAVDVQHVLASLVAQGATFGAMEVSSHGLVQHRVAALKFAASVFTNLSRDHLDYHGDMAHYEAAKWMLYSTHHHGQAIVNADDEVGRRWLASLPDAVAVSMEGHINPNCHGRWLKAEAVEYHDRGATIRFASSWGEGEIESRLMGAFNVSNLLLALATLLALGYPLTDLLKTAARLQPVCGRMEVFTAPGKPTVVVDYAHTPDALEKALQAARLHCAGKLWCVFGCGGDRDKGKRPLMGAIAEEFADIVVVTDDNPRTEEPRAIINDILAGMLDAGQVRVMEGRAEAVTNAIMQAKDNDVVLIAGKGHEDYQIVGTQRLDYSDRVTAARLLGVIA | not soluble
MKTLLSLGHGYSAQALAHRLLPQGWTVIGTTRSAAKAAELEAGGIEPLLWPGDLGPALARASHILASAAPGREGDPFLATHGAELARADARWVGYLSTTGVYGDHAGGWVDEDTPLTPSTERGQARVQAERQWQALGLPLHIFRLAGIYGPGRGPFEKVRDGTARRIVKPGQVFSRIHVADIAQVLEASMQHPEPGAIYNVCDDDPAPPEDVLGYAAELLGLPPPPEVPYDEAEMTPMARSFYAESKRVRNDRIKARLGIALLHPDYRSGLRSLLAGGD | not soluble
VVDFGALPPEINSARMYAGPGSASLVAAAKMWDSVASDLFSAASAFQSVVWGLTTGSWIGSSAGLMVAAASPYVAWMSVTAGQAELTAAQVRVAAAAYETAYGLTVPPPVIAENRAELMILIATNLLGQNTPAIAVNEAEYGEMWAQDAAAMFGYAATAATATEALLPFEDAPLITNPGGLLEQAVAVEEAIDTAAANQLMNNVPQALQQLAQPTKSIWPFDQLSELWKAISPHLSPLSNIVSMLNNHVSMTNSGVSMASTLHSMLKGFAPAAAQAVETAAQNGVQAMSSLGSQLGSSLGSSGLGAGVAANLGRAASVGSLSVPQAWAAANQAVTPAARALPLTSLTSAAQTAPGHMLGGLPLGQLTNSGGGFGGVSNALRMPPRAYVMPRVPAAG | soluble
EHIKQKNSEIAELTLQNQRDADSVEYYKALVSQDEKQKVLIHDIKKHLNAIASLNEQHDSEKIAAYLTHVLGSSELKHSVRVCDNDLLNALLCRYQKICLTKKIALHIDIRSKCIDFVTYDDLSVLFGNLMDNAVESAEKTVNPFIELNVFHKENNNMTIITLIDSCRVNPIDKNGNLLPTKKPNPQFHGFGMRSIENIVKKYNGEMTFYFDDPTKTFHTIIMLRH | not soluble
MKILLEVKYMTKFQVAYVPVGVPTFHLESAQKEFEKSIDLLNTITDAAIVPDKMLLSIQDLTNFLDTIEPSLIILQNITFANAAYASEVLKRFSCPVLLWTLREPVIDGGRLRLNSLTGAYSAGNALAAFRDGNFEYIFGAPQEERTKKTISACIRAAWLKNELKNLRIASVGHTPQGFGFGRAMDADMQKVFGATLESIEVRELIDMAKGYTDDECSEYLDKMTKCTVGLDKTPDNNRKDFARLCKAYKEYVDENNIGALSSRCWPDFFTAFGTPVCGVLAMLNDMGVAASCEADTYGALSMYMGMKLSEQAVFFGDPVSLDESENTITFWHCGTAACSIAREDTGATIGVHPNRKIGPVMDFGCKAADKVTVFRVGQKADGSFRFFVTTGSALDKPKQFCGTSIVVRTDKNSYDIVNQSVKDGWEPHFVVIYGDCSDELKVLGHMLEIEVCEY | not soluble
MNMIDKIGVHDVPPGESLQPPRIPYTPIFSNKRLSKHMSRFLIYFLPFFIYSGNVLSKTSCLMATGVLKCPTDPEAVKKVHIDLWDEDSLPLESDDLMGRTWSDRNGNFQVTGCASDFGPINTPDPYLYIQHNCPHRDSNATNPIQVYLKVLENASF | not soluble
GPGSMLRCNISQRVPTHPVVSVKSGLVFERSLVEKYVDEHGRCPVTGDPLRKEDLITAQGAAPDASIASSGSLGAASVPTLLERLQVEWEGVALEQFSLRQQVTQLQLELAHALQQYDAACRVIARLSKELDSLRGGKAVAAEETDKGPAVVVVPAPVLRRMDAAEAAERQARKQRKAAAGSTAATPSQLTEEAQWVATPSSSASASSARSAVRVAAAADASSSGVFVSAVTGDHAIVRYSPDGFSEEARGIGHTATVHTLASQPGDILLSAAEDLTVRVWSTKGAALTVMHTLRYASGVVAMSQRTVGGAYMLCGAGDGVLTLSDLESGAHVVATAPLTLDTTSGALTCVELHPYASLAAVAFQPTELQLWDAREMRADTFISHVRGTAPRTHICSASFSADCVSLAAGLTDGSVYVWDLRQVLAPVAVLPPSADAVPATVRYAPDGRSLVVGGHGVTLYDCARLSASSTAVEAVATAGLKASAVCDVCWTTSGTDVLCGSVDGVVRLYSTAAGAT | soluble
MILPDRKQILDRELIRRIADTTISGSGHSDGLSEYASIRKAAFAFVESAVLGDQAYSPIENAELAFIVWILAALDENIITARTIIKARDTVEKQLRLVEHYEDLEEFGSRLGIEISVFGEQIGKDHLYRIGVADFATYASRVTGSKYRLSNQIVREGYVYVDEDVMAKVLREAFVSFMFDTLDQIRKEDAIETIKSVLDDLEKIRESYRKAHNVRMIAGKGDASMFPPCMKEIIKNLESGVNVSHMGRLALASFLHKAGYSEDEIVPYFRNAPDFDENITRYQIKHISGEISGTEYTPPKCETMRSNHLCYMDDDPLCHREWMKHPLTYYEVKRRNRKIRLEHHHHHH | soluble
MKEVARVRNLNRIIMGKYEIEPWYFSPYPIELTDEDFIYIDDFTLQYFGSKKQYERYRKKCTLRHPPGNEIYRDDYVSFFEIDGRKQRTWCRNLCLLSKLFLDHKTLYYDVDPFLFYCMTRRDELGHHLVGYFSKEKESADGYNVASILTLPQYQRMGYGKLLIEFSYELSKKENKVGSPEKPLSDLGLLSYRAYWSDTLITLLVEHQKEITIDEISSMTSMTTTDILHTAKTLNILRYYKGQHIIFLNEDILDRYNRLKAKKRRTIDPNRLIWKPPV | soluble
MATESALIKVHVKSPSNKYDVEIAADASVSELKDKVLVFVPTANKEQVCIIYTGKILKDEETLTQHKIADGHTVHLVIRNQARPTPAPAAATPTASSAPSSNPTPSSQPNPTNNPFAAMGGMGSPADILNNPDAMRSVMDNPITQQLLGNPEFMRTIIQSNPQFQALIERNPEVGHILNDPNVMRQTMEMIRNPNMFQEMMRNHDQAIRNLQGIPGGEAALERLYNDVQEPLLNSATNSLSGNPFASLRGDQSSEPRVDRAGQENNEALPNPWASNANQATNNQSNNRSADFNSLLDSPGISSLMEQMMSNPSMQASMFSPEVINSIRQNMSNNPGLIDSIVGQIPSARDNPQISEGIRRSFPQMLNMMSDPSVMEAMRNPRVSEAFRQIQEGFSTLRREAPQLLNLFQAGAMGGGAFGSDANASSAGANSANGLADLFNSMNMGGGRPSSTAAPVNPEQTYASQLEQLQSMGFSDRARNVAALTATFGDLNAAVERLLNSP | not soluble
MMTYDRNRNAITTGSRVMISGTGHTGIIKAIESEGLDAGQIRRGKTVIVEGCEGKFAPVELIRLGMN | not soluble
MGSDKIHHHHHHMNLNPIINNFQRPIRKVQICCILIFSCAACSLNIPYENQYSDPDAITTVTAARELLASAYDAIPKPEFSLSVLSDDFQPTFLINLNADLNNLYKWHPKPMEDLSNSLWEKYYSAIAIANTVLERIHYVSPISDSDKQELQCIVSEAKTLKAYCYFNLLRLFAPTYPEGPEKDGIILKERFELAFLKRSSISECVNAIRQLLTEAVTVDNRPSQVYWFSRQSAYYLLAALELYAENYDKAEEYALKILSSTNAYNVLAPVHYKKLWEQEPCEECIFSLHTTNSYYTDMNYERKKGDYFTINSTLTQLYTANDIRYEATVYPQEMPGESIGETLPVLYLGKYNKQNWNYKPIQYINKLRVSGICFILAEAYCQDQKGHDALALEVINNYLAQREAPLLDTSLSGAPLLKAILQEKWKEFAGEGERYFDLKRYRKSLLSDWNLSATMKNKPIKPDDYRWLFPIPKGEYLYNENISQNAGWTKVEK | not soluble
KANELKPIPFSQRTTPSILDLRKQQATVTQNKIRTDITRFCYGQEAHLDRALAYLGLSPSDEKRPIVTGLRETELNGAYSLILEFDSPLIPIDIWQQKHAKMTKYFAPNVEVKITQPAENRIELELIKTQ | not soluble
FPRVSQELKTALSTLQQTFVVSDATQPHCPIVYASSGFFTMTGYSSKEIVGRNCRFLQGPDTDKNEVAKIRDCVKNGKSYCGRLLNYKKDGTPFWNLLTVTPIKDDQGNTIKFIGMQVEVSKYTEGVNDK | soluble
